Reference: the Human Domainome abundance scans (Beltran et al. 2025)
± gives the uncertainty stated by the source.

B1: Zinc finger MYM-type protein 3, residues 589 to 668; numbered along this chain, Q14202 (parent)
chain: LSCHYCHSLFSGKPEVLDWQDQVFQFCCRDCCEDFKRLRGVVSQCEHCRQEKLLHEKLRFSGVEKSFCSEGCVLLYKQDF

Variants of: B1
Test: abundance fitness (aPCA) (normalised: wild type 0, dead -1); higher = more abundant; growth selection in yeast, the domain comes from the species named
Conditions: Homo sapiens

Variant	abundance fitness
LSCHYCHSLFSGKPEVLDWQDEVFQFCCRDCCEDFKRLRGVVSQCEHCRQEKLLHEKLRFSGVEKSFCSEGCVLLYKQDF [Q22E]	0.313 ± 0.047
LSCHYCHSLFSGKPEVLDWQDYVFQFCCRDCCEDFKRLRGVVSQCEHCRQEKLLHEKLRFSGVEKSFCSEGCVLLYKQDF [Q22Y]	0.101 ± 0.061
LSCHYCHSLFSGKPEVLDWQDAVFQFCCRDCCEDFKRLRGVVSQCEHCRQEKLLHEKLRFSGVEKSFCSEGCVLLYKQDF [Q22A]	0.26 ± 0.04
LSCHYCHSLFSGKPEVLDWQDGVFQFCCRDCCEDFKRLRGVVSQCEHCRQEKLLHEKLRFSGVEKSFCSEGCVLLYKQDF [Q22G]	0.253 ± 0.041
LSCHYCHSLFSGKPEVLDWQDWVFQFCCRDCCEDFKRLRGVVSQCEHCRQEKLLHEKLRFSGVEKSFCSEGCVLLYKQDF [Q22W]	-0.054 ± 0.044
LSCHYCHSLFSGKPEVLDWQDRVFQFCCRDCCEDFKRLRGVVSQCEHCRQEKLLHEKLRFSGVEKSFCSEGCVLLYKQDF [Q22R]	0.165 ± 0.038
LSCHYCHSLFSGKPEVLDWQDNVFQFCCRDCCEDFKRLRGVVSQCEHCRQEKLLHEKLRFSGVEKSFCSEGCVLLYKQDF [Q22N]	0.255 ± 0.059
LSCHYCHSLFSGKPEVLDWQDFVFQFCCRDCCEDFKRLRGVVSQCEHCRQEKLLHEKLRFSGVEKSFCSEGCVLLYKQDF [Q22F]	0.047 ± 0.068
LSCHYCHSLFSGKPEVLDWQDCVFQFCCRDCCEDFKRLRGVVSQCEHCRQEKLLHEKLRFSGVEKSFCSEGCVLLYKQDF [Q22C]	0.117 ± 0.058
LSCHYCHSLFSGKPEVLDWQDMVFQFCCRDCCEDFKRLRGVVSQCEHCRQEKLLHEKLRFSGVEKSFCSEGCVLLYKQDF [Q22M]	0.309 ± 0.054
LSCHYCHSLFSGKPEVLDWQDHVFQFCCRDCCEDFKRLRGVVSQCEHCRQEKLLHEKLRFSGVEKSFCSEGCVLLYKQDF [Q22H]	0.269 ± 0.077
LSCHYCHSLFSGKPEVLDWQDTVFQFCCRDCCEDFKRLRGVVSQCEHCRQEKLLHEKLRFSGVEKSFCSEGCVLLYKQDF [Q22T]	0.174 ± 0.044
LSCHYCHSLFSGKPEVLDWQDDVFQFCCRDCCEDFKRLRGVVSQCEHCRQEKLLHEKLRFSGVEKSFCSEGCVLLYKQDF [Q22D]	0.297 ± 0.048
LSCHYCHSLFSGKPEVLDWQDKVFQFCCRDCCEDFKRLRGVVSQCEHCRQEKLLHEKLRFSGVEKSFCSEGCVLLYKQDF [Q22K]	-0.075 ± 0.058
LSCHYCHSLFSGKPEVLDWQDLVFQFCCRDCCEDFKRLRGVVSQCEHCRQEKLLHEKLRFSGVEKSFCSEGCVLLYKQDF [Q22L]	0.063 ± 0.049
LSCHYCHSLFSGKPEVLDWQDIVFQFCCRDCCEDFKRLRGVVSQCEHCRQEKLLHEKLRFSGVEKSFCSEGCVLLYKQDF [Q22I]	-0.068 ± 0.11
LSCHYCHSLFSGKPEVLDWQDPVFQFCCRDCCEDFKRLRGVVSQCEHCRQEKLLHEKLRFSGVEKSFCSEGCVLLYKQDF [Q22P]	-0.071 ± 0.05

Variant	abundance fitness
LSCHYCHSLFSGKPEVLDWQDVVFQFCCRDCCEDFKRLRGVVSQCEHCRQEKLLHEKLRFSGVEKSFCSEGCVLLYKQDF [Q22V]	0.288 ± 0.045
LSCHYCHSLFSGKPEVLDWQDSVFQFCCRDCCEDFKRLRGVVSQCEHCRQEKLLHEKLRFSGVEKSFCSEGCVLLYKQDF [Q22S]	0.24 ± 0.043
LSCHYCHSLFSGKPEVLDWQDQMFQFCCRDCCEDFKRLRGVVSQCEHCRQEKLLHEKLRFSGVEKSFCSEGCVLLYKQDF [V23M]	0.338 ± 0.047
LSCHYCHSLFSGKPEVLDWQDQDFQFCCRDCCEDFKRLRGVVSQCEHCRQEKLLHEKLRFSGVEKSFCSEGCVLLYKQDF [V23D]	-0.085 ± 0.05
LSCHYCHSLFSGKPEVLDWQDQRFQFCCRDCCEDFKRLRGVVSQCEHCRQEKLLHEKLRFSGVEKSFCSEGCVLLYKQDF [V23R]	0.294 ± 0.039
LSCHYCHSLFSGKPEVLDWQDQNFQFCCRDCCEDFKRLRGVVSQCEHCRQEKLLHEKLRFSGVEKSFCSEGCVLLYKQDF [V23N]	0.169 ± 0.056
LSCHYCHSLFSGKPEVLDWQDQSFQFCCRDCCEDFKRLRGVVSQCEHCRQEKLLHEKLRFSGVEKSFCSEGCVLLYKQDF [V23S]	0.287 ± 0.047
LSCHYCHSLFSGKPEVLDWQDQQFQFCCRDCCEDFKRLRGVVSQCEHCRQEKLLHEKLRFSGVEKSFCSEGCVLLYKQDF [V23Q]	0.246 ± 0.044
LSCHYCHSLFSGKPEVLDWQDQYFQFCCRDCCEDFKRLRGVVSQCEHCRQEKLLHEKLRFSGVEKSFCSEGCVLLYKQDF [V23Y]	-0.164 ± 0.073
LSCHYCHSLFSGKPEVLDWQDQGFQFCCRDCCEDFKRLRGVVSQCEHCRQEKLLHEKLRFSGVEKSFCSEGCVLLYKQDF [V23G]	-0.003 ± 0.042
LSCHYCHSLFSGKPEVLDWQDQAFQFCCRDCCEDFKRLRGVVSQCEHCRQEKLLHEKLRFSGVEKSFCSEGCVLLYKQDF [V23A]	0.023 ± 0.041
LSCHYCHSLFSGKPEVLDWQDQHFQFCCRDCCEDFKRLRGVVSQCEHCRQEKLLHEKLRFSGVEKSFCSEGCVLLYKQDF [V23H]	0.111 ± 0.051
LSCHYCHSLFSGKPEVLDWQDQLFQFCCRDCCEDFKRLRGVVSQCEHCRQEKLLHEKLRFSGVEKSFCSEGCVLLYKQDF [V23L]	0.155 ± 0.04
LSCHYCHSLFSGKPEVLDWQDQEFQFCCRDCCEDFKRLRGVVSQCEHCRQEKLLHEKLRFSGVEKSFCSEGCVLLYKQDF [V23E]	0.227 ± 0.049
LSCHYCHSLFSGKPEVLDWQDQKFQFCCRDCCEDFKRLRGVVSQCEHCRQEKLLHEKLRFSGVEKSFCSEGCVLLYKQDF [V23K]	0.268 ± 0.055
LSCHYCHSLFSGKPEVLDWQDQWFQFCCRDCCEDFKRLRGVVSQCEHCRQEKLLHEKLRFSGVEKSFCSEGCVLLYKQDF [V23W]	0.134 ± 0.044
LSCHYCHSLFSGKPEVLDWQDQTFQFCCRDCCEDFKRLRGVVSQCEHCRQEKLLHEKLRFSGVEKSFCSEGCVLLYKQDF [V23T]	0.175 ± 0.047
